T1: peptope p66 (p5+14 - SVTVVT linker - 11-1F4 12-mer epitope KHYAAFPENLLI)
T1 construct: also called peptide p66; 11-1F4 peptope
T1 peptide: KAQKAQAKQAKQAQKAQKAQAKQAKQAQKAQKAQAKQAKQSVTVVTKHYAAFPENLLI

B1: murine monoclonal antibody 11-1F4 (antibody, V domains shown)
VH: QVQLKESGPGLVAPSQSLSITCTVSGFSLSSYGVSWVRQPPGKGLEWLGVIWGDGSTNYHPNLMSRLSISKDISKSQVLFKLNSLQTDDTATYYCVTLDYWGQGTSVTVSS
VL: DVVMTQTPLSLPVSLGDQASISCRSSQSLVHRNGNTYLHWYLQKPGQSPKLLIYKVSNRFSGVPDRFSGSGSGTDFTLKISRVEAEDLGLYFCFQTTYVPNTFGGGTKLEIK

Legend:
Vκ4Len(1-22) peptide = Vκ4Len(1-22) peptide (UniProt P06312); assay: EuLISA, peptide-coated wells, mAb titrated from 100 nM
[1] = biological target: T1, peptope p66 (p5+14 - SVTVVT linker - …); assay: EuLISA: rVλ6Wil fibrils on the plate, p66 added and washed, murine 11-1F4 titrated 1:2 from 100 nM; 11-1F4 also binds the fibrils themselves at high concentration (FIG. 10)

Molecule	EC50 (Vκ4Len(1-22) peptide)	EC50 (read off the curve) [1]
murine monoclonal antibody 11-1F4	0.5 nM	
B1		~0.8 nM

Source: patent publication US20190083616A1 (UNIVERSITY OF TENESSEE RESEARCH FOUNDATION, published 2019)
